Source: article PMC8651296

Assays:
[1] = biological target: ctSTIM1 cysteine mutant at position 312 (C437S background) (human) (UniProt Q13586); assay: FRET or BRET; single-molecule FRET (TIRF), symmetric inter-subunit: one cysteine mutant labelled with Alexa Fluor 555 and 647 mixed 1:1; single ctSTIM1 dimers in liposomes tethered by biotin-neutravidin; 20/150 TBS pH 7.4, room temperature
[2] = biological target: ctSTIM1 cysteine mutant at position 337 (C437S background) (human) (UniProt Q13586); assay: as above

Row | Substance | inter-subunit FRET efficiency [1] | inter-subunit FRET efficiency [2]
1 | ctSTIM1 cysteine mutant at position 312 (C437S background) (from UniProt Q13586 233-685) (domain or fragment) | 0.9 | 
2 | ctSTIM1 cysteine mutant at position 337 (C437S background) (from UniProt Q13586 233-685) (domain or fragment) |  | 0.9
